Article doi:10.1101/2023.12.21.572875, “Structure of the human systemic RNAi defective transmembrane protein 1 (hSIDT1) reveals the conformational flexibility of its lipid binding domain” (bioRxiv, 2024)

Biological target: the molecule itself
Assay: cryo-EM structure; single-particle cryo-EM of purified hSIDT1-GFP at 1 mg/ml in 0.5% digitonin, 25 mM Tris-HCl pH 7.5, 200 mM NaCl, with 100 uM fluorinated octyl-maltoside; no cholesterol or analogues; blotted at 18°C; C2 symmetry imposed

B1: human systemic RNAi-defective transmembrane family member 1 (hSIDT1), full length, C-terminal GFP-Strep-tag-II fusion (natural protein, UniProt Q9NXL6 20-827, looked up)
chain: ASPGHPAKSPRQPPAPRRDPFDAARGADFDHVYSGVVNLSTENIYSFNYTSQPDQVTAVRVYVNSSSENLNYPVLVVVRQQKEVLSWQVPLLFQGLYQRSYNYQEVSRTLCPSEATNETGPLQQLIFVDVASMAPLGAQYKLLVTKLKHFQLRTNVAFHFTASPSQPQYFLYKFPKDVDSVIIKVVSEMAYPCSVVSVQNIMCPVYDLDHNVEFNGVYQSMTKKAAITLQKKDFPGEQFFVVFVIKPEDYACGGSFFIQEKENQTWNLQRKKNLEVTIVPSIKESVYVKSSLFSVFIFLSFYLGCLLVGFVHYLRFQRKSIDGSFGSNDGSGNMVASHPIAASTPEGSNYGTIDESSSSPGRQMSSSDGGPPGQSDTDSSVEESDFDTMPDIESDKNIIRTKMFLYLSDLSRKDRRIVSKKYKIYFWNIITIAVFYALPVIQLVITYQTVVNVTGNQDICYYNFLCAHPLGVLSAFNNILSNLGHVLLGFLFLLIVLRRDILHRRALEAKDIFAVEYGIPKHFGLFYAMGIALMMEGVLSACYHVCPNYSNFQFDTSFMYMIAGLCMLKLYQTRHPDINASAYSAYASFAVVIMVTVLGVVFGKNDVWFWVIFSAIHVLASLALSTQIYYMGRFKIDLGIFRRAAMVFYTDCIQQCSRPLYMDRMVLLVVGNLVNWSFALFGLIYRPRDFASYMLGIFICNLLLYLAFYIIMKLRSSEKVLPVPLFCIVATAVMWAAALYFFFQNLSSWEGTPAESREKNRECILLDFFDDHDIWHFLSATALFFSFLVLLTLDDDLDVVRRDQIPVF
modifications: lacks complex N-glycosylation; density for N-acetylglucosamine at the predicted N-glycosylation sites N57, N67, N83, N136, N282 (not modelled)
notes: human SIDT1 (systemic RNAi-defective transmembrane family member 1), full length, codon-optimized synthetic gene (GenScript); UniProt Q9NXL6 printed for the AlphaFold model used in model building; Homodimer with C2 symmetry; Not modelled in the structure: the first 40 residues, cytosolic loops CL1 and CL4, Q278-N286 and the C-terminal GFP; The native signal peptide may be removed in the mature …
  stoichiometry N: 2
